{"source": "paper PMC9035363", "key": {"[1]": {"target": "SARS-CoV-2 S D614G on CHO cells (SARS-CoV-2) (UniProt P0DTC2)"}, "[2]": {"target": "RBD N440D on yeast (SARS-CoV-2) (UniProt P0DTC2)"}, "[3]": {"target": "RBD-Fc L452R (SARS-CoV-2) (UniProt P0DTC2)"}, "[4]": {"target": "SARS-CoV-2 S D614G on CHO cells (SARS-CoV-2) (UniProt P0DTC2)", "remark": "listed apart in the source"}, "[5]": {"target": "RBD-Fc K417N (SARS-CoV-2) (UniProt P0DTC2)"}, "[6]": {"target": "SARS-CoV-2 S N439K on CHO cells (SARS-CoV-2) (UniProt P0DTC2)"}, "[7]": {"target": "SARS-CoV-2 S N501Y on CHO cells (SARS-CoV-2) (UniProt P0DTC2)"}, "[8]": {"target": "SARS-CoV-2 S S494P on CHO cells (SARS-CoV-2) (UniProt P0DTC2)"}, "[9]": {"target": "SARS-CoV-2 S S477N on CHO cells (SARS-CoV-2) (UniProt P0DTC2)"}, "[10]": {"target": "RBD-Fc K417T (SARS-CoV-2) (UniProt P0DTC2)"}, "[11]": {"target": "RBD-Fc E484K (SARS-CoV-2) (UniProt P0DTC2)"}, "[12]": {"target": "RBD-Fc L452R (SARS-CoV-2) (UniProt P0DTC2)", "remark": "listed apart in the source"}, "[13]": {"target": "RBD-Fc Y453F (SARS-CoV-2) (UniProt P0DTC2)"}, "[14]": {"target": "RBD-Fc K417E (SARS-CoV-2) (UniProt P0DTC2)"}, "[15]": {"target": "RBD-Fc D420N (SARS-CoV-2) (UniProt P0DTC2)"}, "[16]": {"target": "SARS-CoV-2 S S494P on CHO cells (SARS-CoV-2) (UniProt P0DTC2)", "remark": "listed apart in the source"}, "[17]": {"target": "RBD-Fc E484D (SARS-CoV-2) (UniProt P0DTC2)", "assay": "SPR"}, "[18]": {"target": "RBD-Fc N439K (SARS-CoV-2) (UniProt P0DTC2)", "assay": "SPR"}, "[19]": {"target": "RBD-Fc E484K (SARS-CoV-2) (UniProt P0DTC2)", "assay": "SPR"}, "[20]": {"target": "RBD-Fc L452R (SARS-CoV-2) (UniProt P0DTC2)", "assay": "SPR"}, "[21]": {"target": "RBD-Fc Y453F (SARS-CoV-2) (UniProt P0DTC2)", "assay": "SPR"}, "[22]": {"target": "RBD-Fc F486I (SARS-CoV-2) (UniProt P0DTC2)", "assay": "SPR"}, "[23]": {"target": "RBD-Fc N460T (SARS-CoV-2) (UniProt P0DTC2)", "assay": "SPR"}, "[24]": {"target": "RBD-Fc K417N (SARS-CoV-2) (UniProt P0DTC2)", "assay": "SPR"}, "[25]": {"target": "RBD-Fc V483A (SARS-CoV-2) (UniProt P0DTC2)", "assay": "SPR"}, "[26]": {"target": "RBD-Fc K417E (SARS-CoV-2) (UniProt P0DTC2)", "assay": "SPR"}, "[27]": {"target": "RBD-Fc D420N (SARS-CoV-2) (UniProt P0DTC2)", "assay": "SPR"}, "[28]": {"target": "RBD-Fc G476S (SARS-CoV-2) (UniProt P0DTC2)", "assay": "SPR"}, "[29]": {"target": "RBD-Fc F486V (SARS-CoV-2) (UniProt P0DTC2)", "assay": "SPR"}, "[30]": {"target": "RBD-Fc S494P (SARS-CoV-2) (UniProt P0DTC2)", "assay": "SPR"}, "[31]": {"target": "RBD-Fc N501Y (SARS-CoV-2) (UniProt P0DTC2)", "assay": "SPR"}, "[32]": {"target": "RBD-Fc E484Q (SARS-CoV-2) (UniProt P0DTC2)", "assay": "SPR"}, "[33]": {"target": "RBD-Fc N460K (SARS-CoV-2) (UniProt P0DTC2)", "assay": "SPR"}, "[34]": {"target": "RBD-Fc Y489H (SARS-CoV-2) (UniProt P0DTC2)", "assay": "SPR"}, "[35]": {"target": "RBD-Fc N460S (SARS-CoV-2) (UniProt P0DTC2)", "assay": "SPR"}, "[36]": {"target": "RBD-Fc F490S (SARS-CoV-2) (UniProt P0DTC2)", "assay": "SPR"}, "[37]": {"target": "RBD-Fc K417T (SARS-CoV-2) (UniProt P0DTC2)", "assay": "SPR"}, "[38]": {"target": "RBD-Fc S477N (SARS-CoV-2) (UniProt P0DTC2)", "assay": "SPR"}}}
{"substance": "LY-CoV1404 (bebtelovimab), full-length human IgG1 mAb (antibody)", "values": [{"measurement": "pseudovirus neutralisation (second system of Table 3D), IC50", "setting": "[1]", "result": 3, "unit": "ng/mL"}, {"measurement": "pseudovirus (whole S) susceptibility IC50", "setting": "[2]", "result": 6, "unit": "ng/mL"}, {"measurement": "VSV pseudovirus (whole S) neutralisation IC50", "setting": "[3]", "result": "< 1", "unit": "ng/mL"}, {"measurement": "lentiviral pseudovirus (whole S) neutralisation IC90", "setting": "[3]", "result": 10, "unit": "ng/mL"}, {"measurement": "lentiviral pseudovirus neutralisation IC50", "setting": "[4]", "result": 3, "unit": "ng/mL"}, {"measurement": "lentiviral pseudovirus neutralisation IC90", "setting": "[4]", "result": 10, "unit": "ng/mL"}, {"measurement": "VSV pseudovirus (whole S) neutralisation IC50", "setting": "[5]", "result": 2, "unit": "ng/mL"}, {"measurement": "VSV pseudovirus neutralisation IC50", "setting": "[6]", "result": 2, "unit": "ng/mL"}, {"measurement": "VSV pseudovirus neutralisation IC90", "setting": "[6]", "result": 7, "unit": "ng/mL"}, {"measurement": "VSV pseudovirus neutralisation IC50", "setting": "[7]", "result": 2, "unit": "ng/mL"}, {"measurement": "VSV pseudovirus neutralisation IC90", "setting": "[7]", "result": 7, "unit": "ng/mL"}, {"measurement": "VSV pseudovirus neutralisation IC50", "setting": "[8]", "result": 2, "unit": "ng/mL"}, {"measurement": "VSV pseudovirus neutralisation IC50", "setting": "[9]", "result": 5, "unit": "ng/mL"}, {"measurement": "VSV pseudovirus neutralisation IC90", "setting": "[9]", "result": 26, "unit": "ng/mL"}, {"measurement": "VSV pseudovirus (whole S) neutralisation IC50", "setting": "[10]", "result": 2, "unit": "ng/mL"}, {"measurement": "pseudovirus (whole S) susceptibility IC50", "setting": "[11]", "result": 2, "unit": "ng/mL"}, {"measurement": "pseudovirus (whole S) susceptibility IC50", "setting": "[12]", "result": 2, "unit": "ng/mL"}, {"measurement": "pseudovirus (whole S) susceptibility IC50", "setting": "[13]", "result": 2, "unit": "ng/mL"}, {"measurement": "pseudovirus (whole S) susceptibility IC50", "setting": "[14]", "result": 4, "unit": "ng/mL"}, {"measurement": "pseudovirus (whole S) susceptibility IC50", "setting": "[15]", "result": 2, "unit": "ng/mL"}, {"measurement": "pseudovirus susceptibility IC50", "setting": "[16]", "result": 1, "unit": "ng/mL"}]}
{"substance": "LY-CoV1404 Fab (papain digestion)", "values": [{"measurement": "Kd", "setting": "[17]", "result": 3.37, "unit": "nM"}, {"measurement": "Kd", "setting": "[18]", "result": 5.05, "unit": "nM"}, {"measurement": "Kd", "setting": "[19]", "result": 3.19, "unit": "nM"}, {"measurement": "Kd", "setting": "[20]", "result": 4.94, "unit": "nM"}, {"measurement": "Kd", "setting": "[21]", "result": 3.28, "unit": "nM"}, {"measurement": "Kd", "setting": "[22]", "result": 2.69, "unit": "nM"}, {"measurement": "Kd", "setting": "[23]", "result": 3.52, "unit": "nM"}, {"measurement": "Kd", "setting": "[24]", "result": 3.08, "unit": "nM"}, {"measurement": "Kd", "setting": "[25]", "result": 3.29, "unit": "nM"}, {"measurement": "Kd", "setting": "[26]", "result": 2.59, "unit": "nM"}, {"measurement": "Kd", "setting": "[27]", "result": 4.09, "unit": "nM"}, {"measurement": "Kd", "setting": "[28]", "result": 4.35, "unit": "nM"}, {"measurement": "Kd", "setting": "[29]", "result": 2.82, "unit": "nM"}, {"measurement": "Kd", "setting": "[30]", "result": 3.46, "unit": "nM"}, {"measurement": "Kd", "setting": "[31]", "result": 2.9, "unit": "nM"}, {"measurement": "Kd", "setting": "[32]", "result": 3.74, "unit": "nM"}, {"measurement": "Kd", "setting": "[33]", "result": 3.4, "unit": "nM"}, {"measurement": "Kd", "setting": "[34]", "result": 3.06, "unit": "nM"}, {"measurement": "Kd", "setting": "[35]", "result": 2.6, "unit": "nM"}, {"measurement": "Kd", "setting": "[36]", "result": 2.99, "unit": "nM"}, {"measurement": "Kd", "setting": "[37]", "result": 2.54, "unit": "nM"}, {"measurement": "Kd", "setting": "[38]", "result": 3.45, "unit": "nM"}]}
